Assays:
Panc1 cells [1] = assay: MTT proliferation assay, soluble klotho protein and 5-FU; settings: 5-FU 500 μM alone; 48 hr
Description: 3000 cells/well were plated in 96-well plates, cultured in the appropriate culture media, and treated for 48 hrs as indicated.
Medium alone served as control. 48 hr after incubation, cells were cultured for 2 hr with 500 μg/ml MTT reagent, the medium was aspirated, and the cells were dissolved in dimethyl sulfoxide (DMSO). Absorbance of the formazan product was measured by an enzyme-linked immunosorbent assay reader to provide a measure of viability.

klotho protein mRNA = assay: Silencing of klotho protein expression by siRNA in MCF-7 cells (mRNA levels); type: cell-based, human; settings: MCF-7 cells transfected with siRNA
From the text: (§1) Klotho protein directed stealth siRNA duplex oligoribonucleotides and control siRNAs were both designed and purchased from Invitrogen. Lipofectamine 2000 (Invitrogen), and was used to transfect the cells with 100 pmoles of siRNA.
For breast cell studies, total RNA was extracted using the RNA isolation kit (Sigma) and processed to cDNA with RevertAid (Fermentas, Vilnius, Lithuania). Primers were designed using Primer Express (Applied Biosystems, Foster City, Calif.) and synthesized by IDT (Coralville, Iowa). […].
(§2) Three klotho protein-directed siRNAs were designed and tested for their ability to silence klotho protein expression in MCF-7 cells, compared to a control siRNA (siRNAc).

MCF-7 cells = assay: MTT proliferation assay after klotho protein down-regulation by siRNA; type: cell-based, human; settings: 48 h; compared to siRNAc; p<0.05
Description: as §1
The medium was aspirated, and the cells were dissolved by dimethyl sulfoxide (DMSO).
as §2

AKT in MCF-7 cells = assay: AKT phosphorylation after IGF-1 stimulation in klotho-silenced MCF-7 cells; type: cell-based, human; settings: compared to siRNAc transfected cells
From the text: as §1
The effect of silencing of klotho protein in MCF-7 cells, using siRNA3, was also studied.

IGF-1R in MCF-7 cells = assay: IGF-1R phosphorylation in MCF-7 cells treated with soluble klotho protein; type: cell-based, human; settings: klotho 15 min, then IGF-1 12.5 nM
From the text: Soluble klotho protein was generated essentially as described (Kurosu et al., 2005). In brief, insect cells, which stably express V5-tagged soluble klotho protein, were generated using the Drosophila Expression System (Invitrogen). A cDNA fragment encoding the entire extracellular domain of mouse Klotho protein (amino acid residues 31 to 982 of SEQ ID NO: 3) was inserted into a pMT/BiP/V5-His expression vector, allowing inducible expression from metallothionein promoter and secretion of the recombinant protein with V5 and 6×His tags at the C-terminus into conditioned medium. The expression vector was transfected into Drosophila Schneider cells by the calcium phosphate method together with pCoHYGRO selection vector. […]
As klotho protein may also be shed and act as a circulating hormone (Kuro-o et al., 1997; Matsumura et al., 1998), the ability of soluble klotho protein to inhibit activation of the IGF-1 pathway in MCF-7 cells was tested. V5-tagged soluble klotho protein was generated as described under “Materials and Methods”, its expression and purity were examined using Coomassie staining and its concentration was determined (data not shown). MCF-7 cells were treated with klotho protein for 15 min and, stimulated with IGF-1 (12.5 nM, 15 min), and expression and phosphorylation of the IGF-1R was determined.

[2] = test system: IGF-1 pathway in Panc1 cells; assay: IGF-1 pathway in Panc1 cells treated with soluble klotho protein (immunoblot); type: cell-based, human; settings: klotho 10 min, then IGF-1 12.5 nM, 15 min
Description: For pancreatic cells, protein extraction and Western blotting was performed as described (Wolf et al., 2008).
Since klotho protein is shed and may act as a circulating hormone, the ability of soluble klotho protein to inhibit activation of the IGF-1 pathway in Panc1 cells was tested. V5-tagged soluble klotho protein was generated as described [Kurosu H. et al., 2005]. Panc1 cells were treated with klotho protein for 10 min and stimulated with IGF-1 (12.5 nM, 15 min), and expression and phosphorylation of the IGF-1R, AKT and ERK1/2 was determined.

Panc1 cells [3] = assay: In vivo Panc1 tumors in athymic mice treated with sol-hKL or sol-hKL1; settings: i.p. five days a week for five weeks; for tumor growth (tumor volume and weight): sol-hKL 2.5 μg/kg, sol-hKL1 10 or 25 μg/kg, p<0.05
Description: The in vivo growth inhibitory activity of sol-hKL1, compared to sol-hKL, on pancreatic cancer cells was examined (FIG. 17C-G). Panc1 cells were injected into one flank of athymic mice and mice were treated with intraperitoneal injections of either control vehicle (N=12), sol-hKL (2.5 μg/kg, N=7), or sol-hKL1 (10 μg/kg, N=6; 25 μg/kg, N=7), five days a week for five weeks. Weight of mice (FIG. 17C) and tumor volume (FIG. 17D) in control and treated groups were monitored weekly and tumor weight was measured on day of sacrifice (FIG. 17E).

MiaPaCa2 cells = assay: In vivo MiaPaCa2 tumors in athymic mice treated with sol-hKL or sol-hKL1; settings: sol-hKL 2.5 μg/kg, sol-hKL1 10 μg/kg; for tumors completely regressed (number) / tumors completely regressed (percent): after four weeks
Description: A similar experiment, with minor differences, was also performed using MiaPaCa2 cells (FIGS. 17H, 17I). Cells were injected into both flanks of athymic mice and mice were treated with either a control vehicle (N=8), sol-hKL (2.5 μg/kg, N=8) or sol-hKL1 (10 μg/kg, N=8).

[4] = Blood counts and chemistry of treated mice; type: in vivo; settings: for glucose levels: after fasting, MiaPaCa2 xenograft experiment; for blood counts or liver function tests: data not shown; for hypophosphatemia in treated mice: mouse, in vivo
Description: The effects of sol-hKL and sol-hKL1 on blood counts and chemistry were also studied. For these studies, blood was withdrawn from control, sol-hKL-treated (2.5 μg/kg) or sol-hKL1-treated (10 μg/kg) mice, at the same day as sacrificing and tumor harvesting, following five weeks of treatment.

Panc1 cells [5] = assay: MTT viability assay, sol-hKL or sol-hKL1; type: cell-based, human; settings: 48 hrs
Description: The activity of hKL1 was also tested. Panc1 cells were treated with either sol-hKL or sol-hKL1 for 48 hrs and viability was assessed after 48 hours by MTT assay (FIG. 17B).

[6] = five weeks of treatment, sol-hKL 2.5 μg/kg, sol-hKL1 10 μg/kg

Molecule	changes in weight or general health of mice (Panc1 cells [3])	tumor growth (tumor volume and weight) (Panc1 cells [3])	tumors completely regressed (number) (MiaPaCa2 cells)	tumors completely regressed (percent) (MiaPaCa2 cells) [%]	glucose levels [4]	blood counts or liver function tests [4, 6]	hypophosphatemia in treated mice [4]	other results
O=c1[nH]cc(F)c(=O)[nH]1 [5-FLU, 5-Fluorouracil]								reduction in viability (Panc1 cells [1]): 50%
CACCAAGAGAGAUGAUGCCAAAUAU [siRNA3]								reduction of klotho protein expression (mRNA levels) (klotho protein mRNA): 88%; increase of proliferation of MCF-7 cells (MTT assay) (MCF-7 cells): 2.5 fold; AKT phosphorylation following IGF-1 stimulation (AKT in MCF-7 cells): increased
soluble klotho protein: V5-tagged entire extracellular domain of mouse Klotho protein (residues 31 to 982 of SEQ ID NO: 3) from Drosophila cells (protein, V5 tag) RCLSAEPGQGAQTWARFARAPAPEAAGLLHDTFPDGFLWAVGSAAYQTEGGWRQHGKGASIWDTFTHHSGAAPSDSPIVVAPSGAPSPPLSSTGDVASDSYNNVYRDTEGLRELGVTHYRFSISWARVLPNGTAGTPNREGLRYYRRLLERLRELGVQPVVTLYHWDLPQRLQDTYGGWANRALADHFRDYAELCFRHFGGQVKYWITIDNPYVVAWHGYATGRLAPGVRGSSRLGYLVAHNLLLAHAKVWHLYNTSFRPTQGGRVSIALSSHWINPRRMTDYNIRECQKSLDFVLGWFAKPIFIDGDYPESMKNNLSSLLPDFTESEKRLIRGTADFFALSFGPTLSFQLLDPNMKFRQLESPNLRQLLSWIDLEYNHPPIFIVENGWFVSGTTKRDDAKYMYYLKKFIMETLKAIRLDGVDVIGYTAWSLMDGFEWHRGYSIRRGLFYVDFLSQDKELLPKSSALFYQKLIEDNGFPPLPENQPLEGTFPCDFAWGVVDNYVQVDTTLSQFTDPNVYLWDVHHSKRLIKVDGVVAKKRKPYCVDFSAIRPQITLLREMRVTHFRFSLDWALILPLGNQTQVNHTVLHFYRCMISELVHANITPVVALWQPAAPHQGLPHALAKHGAWENPHTALAFADYANLCFKELGHWVNLWITMNEPNTRNMTYRAGHHLLRAHALAWHLYDDKFRAAQKGKISIALQADWIEPACPFSQNDKEVAERVLEFDIGWLAEPIFGSGDYPRVMRDWLNQKNNFLLPYFTEDEKKLVRGSFDFLAVSHYTTILVDWEKEDPMKYNDYLEVQEMTDITWLNSPSQVAVVPWGLRKVLNWLRFKYGDLPMYVTANGIDDDPHAEQDSLRIYYIKNYVNEALKAYVLDDINLCGYFAYSLSDRSAPKSGFYRYAANQFEPKPSMKHYRRIIDSNGFLGSGTLGRFCPEEYTVCTECGFFQTRK								phosphorylation of the IGF-1 receptor (IGF-1R in MCF-7 cells): inhibited; phosphorylation of IGF-1R, AKT and ERK1/2 [2]: inhibited phosphorylation
sol-hKL: Soluble human Klotho protein (hKL) obtained from R&D Systems (protein, UniProt Q9UEF7 34-981, looked up, extracellular domain, Soluble human Klotho protein (hKL) obtained from R&D Systems) extracellular domain: EPGDGAQTWARFSRPPAPEAAGLFQGTFPDGFLWAVGSAAYQTEGGWQQHGKGASIWDTFTHHPLAPPGDSRNASLPLGAPSPLQPATGDVASDSYNNVFRDTEALRELGVTHYRFSISWARVLPNGSAGVPNREGLRYYRRLLERLRELGVQPVVTLYHWDLPQRLQDAYGGWANRALADHFRDYAELCFRHFGGQVKYWITIDNPYVVAWHGYATGRLAPGIRGSPRLGYLVAHNLLLAHAKVWHLYNTSFRPTQGGQVSIALSSHWINPRRMTDHSIKECQKSLDFVLGWFAKPVFIDGDYPESMKNNLSSILPDFTESEKKFIKGTADFFALCFGPTLSFQLLDPHMKFRQLESPNLRQLLSWIDLEFNHPQIFIVENGWFVSGTTKRDDAKYMYYLKKFIMETLKAIKLDGVDVIGYTAWSLMDGFEWHRGYSIRRGLFYVDFLSQDKMLLPKSSALFYQKLIEKNGFPPLPENQPLEGTFPCDFAWGVVDNYIQVDTTLSQFTDLNVYLWDVHHSKRLIKVDGVVTKKRKSYCVDFAAIQPQIALLQEMHVTHFRFSLDWALILPLGNQSQVNHTILQYYRCMASELVRVNITPVVALWQPMAPNQGLPRLLARQGAWENPYTALAFAEYARLCFQELGHHVKLWITMNEPYTRNMTYSAGHNLLKAHALAWHVYNEKFRHAQNGKISIALQADWIEPACPFSQKDKEVAERVLEFDIGWLAEPIFGSGDYPWVMRDWLNQRNNFLLPYFTEDEKKLIQGTFDFLALSHYTTILVDSEKEDPIKYNDYLEVQEMTDITWLNSPSQVAVVPWGLRKVLNWLKFKYGDLPMYIISNGIDDGLHAEDDQLRVYYMQNYINEALKAHILDGINLCGYFAYSFNDRTAPRFGLYRYAADQFEPKASMKHYRKIIDSNGFPGPETLERFCPEEFTVCTECSFFHTRKS	No changes	significantly inhibited tumor growth	two	12	mildly increased	did not affect	observed	blood urea, cholesterol and phosphate levels [4, 6]: altered
sol-hKL1: Human KL1 (residues 34-549 of SEQ ID: 2) obtained from PeproTech Inc. (protein) EPGDGAQTWARFSRPPAPEAAGLFQGTFPDGFLWAVGSAAYQTEGGWQQHGKGASIWDTFTHHPLAPPGDSRNASLPLGAPSPLQPATGDVASDSYNNVFRDTEALRELGVTHYRFSISWARVLPNGSAGVPNREGLRYYRRLLERLRELGVQPVVTLYHWDLPQRLQDAYGGWANRALADHFRDYAELCFRHFGGQVKYWITIDNPYVVAWHGYATGRLAPGIRGSPRLGYLVAHNLLLAHAKVWHLYNTSFRPTQGGQVSIALSSHWINPRRMTDHSIKECQKSLDFVLGWFAKPVFIDGDYPESMKNNLSSILPDFTESEKKFIKGTADFFALCFGPTLSFQLLDPHMKFRQLESPNLRQLLSWIDLEFNHPQIFIVENGWFVSGTTKRDDAKYMYYLKKFIMETLKAIKLDGVDVIGYTAWSLMDGFEWHRGYSIRRGLFYVDFLSQDKMLLPKSSALFYQKLIEKNGFPPLPENQPLEGTFPCDFAWGVVDNYIQVSQLTKPISSLTKPYH	No changes	significantly inhibited tumor growth	four	25	did not have any significant effect	did not affect	not	concentration for 50% viability reduction relative to sol-hKL (Panc1 cells [5]): 100 times; reduction of viability of Panc1 cells (Panc1 cells [5]; p<0.005 vs control): 50%; tumor growth inhibition compared with sol-hKL (MiaPaCa2 cells): more effectively than sol-hKL

From patent publication US10555963B2, “Klotho protein and related compounds for the treatment and diagnosis of cancer” (TEL HASHOMER MEDICAL RESEARCH INFRASTRUCTURE AND SERVICES …, priority 2007, dated 2020)
